Substitutions are numbered along the chain they refer to. Names may count otherwise.
T1: His-tagged HM1.24 antigen, residues N49-A163 of the extracellular domain (human, UniProt Q10589 49-163)
T1 construct: Expressed in 293T cells, purified by Ni-NTA; not shown: N-terminal His-tag and Factor Xa cleavage site
T1 sequence: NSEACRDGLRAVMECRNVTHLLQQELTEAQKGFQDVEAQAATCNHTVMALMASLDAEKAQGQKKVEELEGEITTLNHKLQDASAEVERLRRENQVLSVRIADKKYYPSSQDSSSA

B1: HM1.24_H0L0_IgG1_WT (antibody)
heavy: not shown
light: DIVMTQSHKFMSTSVGDRVSITCKASQDVNTAVAWYQQKPGQSPKLLIYSASNRYTGVPDRITGSGSGTDFTFTISSVQAEDLALYYCQQHYSTPFTFGSGTKLEIKRTVAAPSVFIFPPSDEQLKSGTASVVCLLNNFYPREAKVQWKVDNALQSGNSQESVTEQDSKDSTYSLSSTLTLSKADYEKHKVYACEVTHQGLSSPVTKSFNRGEC
notes: also called WT anti-HM1.24 antibody; parent HM1.24_H0L0_IgG1 WT antibody
B2: HM1.24_H0L0 IgG1 S239D/I332E (antibody)
heavy: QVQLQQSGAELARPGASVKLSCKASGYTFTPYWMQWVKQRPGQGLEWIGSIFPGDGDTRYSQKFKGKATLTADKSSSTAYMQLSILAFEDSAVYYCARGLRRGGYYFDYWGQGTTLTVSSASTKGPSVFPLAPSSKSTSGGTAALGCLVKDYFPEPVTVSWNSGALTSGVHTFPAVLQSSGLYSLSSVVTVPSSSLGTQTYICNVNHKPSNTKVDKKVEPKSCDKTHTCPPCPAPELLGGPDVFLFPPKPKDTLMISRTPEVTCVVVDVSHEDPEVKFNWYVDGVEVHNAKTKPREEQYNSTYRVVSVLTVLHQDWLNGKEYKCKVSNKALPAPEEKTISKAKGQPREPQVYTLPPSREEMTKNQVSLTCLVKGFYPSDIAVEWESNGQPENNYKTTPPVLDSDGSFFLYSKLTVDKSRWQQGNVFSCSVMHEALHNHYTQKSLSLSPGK
light: B1 light
B3: HM1.24_H1L4 (antibody, V domains shown)
VH: QVQLVQSGAEVKKPGASVKVSCKASGYTFTPYWMQWVRQAPGQGLEWMGSIFPGDGDTRYSQSFQGQVTISADKSISTAYMELSRLRSDDTAVYYCARGLRRGGYYFDYWGQGTLVTVSS
VL: DIVMTQSPLSLPVTLGQPASISCKASQDVNTAVAWYLQKPGKSPKLLIYSASNRYTGVPDRITGSGSGTDFTLKISRVEAEDVGVYYCQQHYSTPFTFGSGTKLEIKR
notes: also called H1 and L4 combination; parent H1 antibody
B4: Antibody comprising the HM1.24_H1.2 heavy chain variant and the HM1.24_L4 light chain (antibody, human IgG1, kappa, V domains shown)
VH: B3 VH with D55S
VL: B3 VL
B5: HM1.24_H1L2 (antibody, human IgG1, kappa, V domains shown)
VH: B3 VH
VL: DIVMTQSPSSLSASVGDRVTITCQASQDVNTAVAWYQQKPDQSPKLLIYSASNRYTGVPDRITGSGSGTDFTLTISSLQAEDVAVYYCQQHYSTPFTFGSGTKLEIKR
notes: also called H1 and L2 combination

Each binder was assayed against T1, His-tagged HM1.24 antigen, residues … (assay: Biacore (SPR): His-tagged HM1.24 antigen coupled directly to the chip (NHS chemistry), antibody as analyte; simultaneous (global Langmuir) fitting).
From the text: (§1) FIG. 17. Binding of anti-HM1.24 antibodies to HM1.24 antigen monitored by Biacore. In this format, HM1.24 antigen was coupled directly to the chip, and antibodies at multiple concentrations were used as analyte in this format.
B1 was tested, and the koff was 3.57e-05 s⁻¹ and the kon was 699000 M⁻¹ s⁻¹.
With B2 the koff was 4.03e-05 s⁻¹ and the kon was 772000 M⁻¹ s⁻¹.
B3 was tested, and the koff was 3.18e-05 s⁻¹ and the kon was 834000 M⁻¹ s⁻¹.
B4 gave a koff of 7.99e-05 s⁻¹ and a kon of 1.29e+06 M⁻¹ s⁻¹.
B5 showed a koff of 2.03e-05 s⁻¹ and a kon of 754000 M⁻¹ s⁻¹.

Each binder was assayed against T1, His-tagged HM1.24 antigen, residues … (assay: Biacore (SPR): His-tagged HM1.24 antigen coupled directly to the chip (NHS chemistry), antibody as analyte; separate kd and ka fitting).
From the text: as §1
B1 was tested, and the koff was 4.4e-05 s⁻¹ and the kon was 820000 M⁻¹ s⁻¹.
B2 showed a koff of 5.5e-05 s⁻¹ and a kon of 863000 M⁻¹ s⁻¹.
B3 gave a koff of 5.53e-05 s⁻¹ and a kon of 966000 M⁻¹ s⁻¹.
For B4, the koff was 9.54e-05 s⁻¹ and the kon was 1.34e+06 M⁻¹ s⁻¹.
With B5 the koff was 4.49e-05 s⁻¹ and the kon was 782000 M⁻¹ s⁻¹.

From US20100104557A1 (Xencor, published 2010)
